# Residue numbers refer to the chain shown, from its start.
# B1: His6-VASP-AAA (natural protein)
# chain: MSETVICSSRATVMLYDDGNKRWLPAGTGPQAFSRVQIYHNPTANSFRVVGRKMQPDQQVVINCAIVRGVKYNQATPNFHQWRDARQVWGLNFGSKEDAAQFAAGMASALEALEGGGPPPPPALPTWSVPNGPSPEEVEQQKRQQPGPSEHIERRVANAGGPPAPPAGGPPPPPGPPPPPGPPPPPGLPPSGVPAAAHGAGGGPPPAPPLPAAQGPGGGGAGAPGLAAAIAGAKLRKVAKQEEASGGPTAPKAESGRSGGGGLMEEMNAMLARRRKAAQVGEKTPKDESANQEEPEARVPAQSESVRRPWEKNSTTLPRMKSSSSVTTSETQPCTPSSSDYSDLQRVKQELLEEVKKELQKVKEEIIEAFVQELRKRGSP
# B2: His6-VASP-AAE, purified recombinant (natural protein)
# chain: B1 chain with A278E
# B3: His6-VASP-ADA, purified recombinant (natural protein)
# chain: B1 chain with A239D
# Biological target: T1, GST-SPCN_SH3 (UniProt Q13813 970-1025)
# Assay: peptide or protein array
row,Binder,binding result
1,PPPPGPPPPPGPAPP [VASP peptide F8 with P183 changed to alanine],binds
2,PPAPGPPPPPGPPPP [VASP peptide F8 with P173 changed to alanine],binds
3,PPPPGPPPPPAPPPP [VASP peptide F8 with G181 changed to alanine],binds
4,PPPAGPPPPPGPPPP [VASP peptide F8 with P174 changed to alanine],binds
5,APPPGPPPPPGPPPP [VASP peptide F8 with P171 changed to alanine],binds
6,PPPPAPPPPPGPPPP [VASP peptide F8 with G175 changed to alanine],binds
7,PPAGGPPPPPGPPPP [VASP peptide F2],binds
8,PPPPGPPPPPGPPPP [VASP peptide F8],binds
9,PPPPGPPPPPGPPAP [VASP peptide F8 with P184 changed to alanine],binds
10,PPPPGPPPPPGAPPP [VASP peptide F8 with P182 changed to alanine],binds
11,PPPPGPPPPPGPPPA [VASP peptide F8 with P185 changed to alanine],binds
12,PAPPGPPPPPGPPPP [VASP peptide F8 with P172 changed to alanine],binds

# Biological target: T1, GST-SPCN_SH3
# Assay: pull-down
row,Binder,binding result
1,B1,binds
2,B2,binds
3,B3,binds

# From paper PMC2213610 (The Journal of Cell Biology, 2008)
